According to patent US20230406885A1, “CYCLIC PEPTIDES FOR TRAPPING INTERLEUKIN-1 BETA” (MERCK SHARP & DOHME LLC, priority 2022, published 2023):
*1 amine or outer side, *2 acyl side, *3 side chain or, on linkers, in order; H or OH if unused. [ ]: non-standard residue; d: D form. 3AzaPhe4AcPip = (S)-3-(6-(4-acetylpiperazin-1-yl)pyridin-3-yl)-2-aminopropanoic acid, CC(=O)N1CCN(c2ccc(C[C@H](N[*:1])C(=O)[*:2])cn2)CC1; Pro(trans-4-NH2) = O=C([C@@H]1C[C@@H](N[*:3])CN1[*:1])[*:2]; Bip(4'-COOH) = N[C@@H](Cc1ccc(-c2ccc(C(=O)O)cc2)cc1)C(=O)O; 1Nal(3S-Me) = C[C@@H](c1cccc2ccccc12)[C@H](N)C(=O)O; Ala(pyrimidin-5-yl) = N[C@@H](Cc1cncnc1)C(=O)O; Phe(4-COOH) = N[C@@H](Cc1ccc(C(=O)O)cc1)C(=O)O; Trp(7-aza) = N[C@@H](Cc1c[nH]c2ncccc12)C(=O)O; h3Pal(5-CN) = N#Cc1cncc(CC[C@H](N)C(=O)O)c1; Ala(4-THP) = N[C@@H](CC1CCOCC1)C(=O)O; hTyr = N[C@@H](CCc1ccc(O)cc1)C(=O)O; 4Pal = N[C@@H](Cc1ccncc1)C(=O)O; dNMeA = CN[C@H](C)C(=O)O; Dap = NC[C@H](N)C(=O)O

B1: SEQ ID NO: 29 (peptide)
peptide: cyclo([Bip(4'-COOH)]W[Phe(4-COOH)]G[Pro(trans-4-NH2)][1Nal(3S-Me)]D[dNMeA]G[Bip(4'-COOH)][Trp(7-aza)][Dap][dA][hTyr])
SMILES: C[C@@H]1C(=O)NCC(=O)N[C@@H](Cc2ccc(-c3ccc(C(=O)O)cc3)cc2)C(=O)N[C@@H](Cc2c[nH]c3ncccc23)C(=O)N[C@@H](CN)C(=O)N[C@H](C)C(=O)N[C@@H](CCc2ccc(O)cc2)C(=O)N[C@@H](Cc2ccc(-c3ccc(C(=O)O)cc3)cc2)C(=O)N[C@@H](Cc2c[nH]c3ccccc23)C(=O)N[C@@H](Cc2ccc(C(=O)O)cc2)C(=O)NCC(=O)N2C[C@H](N)C[C@H]2C(=O)N[C@@H]([C@@H](C)c2cccc3ccccc23)C(=O)N[C@@H](CC(=O)O)C(=O)N1C
B2: SEQ ID NO: 28 (peptide)
peptide: cyclo([Bip(4'-COOH)]W[Phe(4-COOH)]G[Pro(trans-4-NH2)][1Nal(3S-Me)]D[dNMeA]G[Bip(4'-COOH)][Ala(pyrimidin-5-yl)][Dap][dA][hTyr])
SMILES: C[C@@H]1C(=O)NCC(=O)N[C@@H](Cc2ccc(-c3ccc(C(=O)O)cc3)cc2)C(=O)N[C@@H](Cc2cncnc2)C(=O)N[C@@H](CN)C(=O)N[C@H](C)C(=O)N[C@@H](CCc2ccc(O)cc2)C(=O)N[C@@H](Cc2ccc(-c3ccc(C(=O)O)cc3)cc2)C(=O)N[C@@H](Cc2c[nH]c3ccccc23)C(=O)N[C@@H](Cc2ccc(C(=O)O)cc2)C(=O)NCC(=O)N2C[C@H](N)C[C@H]2C(=O)N[C@@H]([C@@H](C)c2cccc3ccccc23)C(=O)N[C@@H](CC(=O)O)C(=O)N1C
B3: SEQ ID NO: 21 (peptide)
peptide: cyclo([Bip(4'-COOH)]W[Phe(4-COOH)]G[Pro(trans-4-NH2)][1Nal(3S-Me)]D[dNMeA]G[Bip(4'-COOH)][4Pal][Dap][dA][h3Pal(5-CN)])
SMILES: C[C@@H]1C(=O)NCC(=O)N[C@@H](Cc2ccc(-c3ccc(C(=O)O)cc3)cc2)C(=O)N[C@@H](Cc2ccncc2)C(=O)N[C@@H](CN)C(=O)N[C@H](C)C(=O)N[C@@H](CCc2cncc(C#N)c2)C(=O)N[C@@H](Cc2ccc(-c3ccc(C(=O)O)cc3)cc2)C(=O)N[C@@H](Cc2c[nH]c3ccccc23)C(=O)N[C@@H](Cc2ccc(C(=O)O)cc2)C(=O)NCC(=O)N2C[C@H](N)C[C@H]2C(=O)N[C@@H]([C@@H](C)c2cccc3ccccc23)C(=O)N[C@@H](CC(=O)O)C(=O)N1C
B4: SEQ ID NO: 25 (peptide)
peptide: cyclo([Bip(4'-COOH)]W[Phe(4-COOH)]G[Pro(trans-4-NH2)][1Nal(3S-Me)]D[dNMeA]G[Bip(4'-COOH)]KL[dA][hTyr])
SMILES: CC(C)C[C@@H]1NC(=O)[C@H](CCCCN)NC(=O)[C@H](Cc2ccc(-c3ccc(C(=O)O)cc3)cc2)NC(=O)CNC(=O)[C@@H](C)N(C)C(=O)[C@H](CC(=O)O)NC(=O)[C@H]([C@@H](C)c2cccc3ccccc23)NC(=O)[C@@H]2C[C@@H](N)CN2C(=O)CNC(=O)[C@H](Cc2ccc(C(=O)O)cc2)NC(=O)[C@H](Cc2c[nH]c3ccccc23)NC(=O)[C@H](Cc2ccc(-c3ccc(C(=O)O)cc3)cc2)NC(=O)[C@H](CCc2ccc(O)cc2)NC(=O)[C@@H](C)NC1=O
B5: SEQ ID NO: 22 (peptide)
peptide: cyclo([Bip(4'-COOH)]W[Phe(4-COOH)]G[Pro(trans-4-NH2)][1Nal(3S-Me)]D[dNMeA]G[Bip(4'-COOH)][4Pal][Dap][dA][hTyr])
SMILES: C[C@@H]1C(=O)NCC(=O)N[C@@H](Cc2ccc(-c3ccc(C(=O)O)cc3)cc2)C(=O)N[C@@H](Cc2ccncc2)C(=O)N[C@@H](CN)C(=O)N[C@H](C)C(=O)N[C@@H](CCc2ccc(O)cc2)C(=O)N[C@@H](Cc2ccc(-c3ccc(C(=O)O)cc3)cc2)C(=O)N[C@@H](Cc2c[nH]c3ccccc23)C(=O)N[C@@H](Cc2ccc(C(=O)O)cc2)C(=O)NCC(=O)N2C[C@H](N)C[C@H]2C(=O)N[C@@H]([C@@H](C)c2cccc3ccccc23)C(=O)N[C@@H](CC(=O)O)C(=O)N1C
B6: SEQ ID NO: 27 (peptide)
peptide: cyclo([Bip(4'-COOH)]W[Phe(4-COOH)]G[Pro(trans-4-NH2)][1Nal(3S-Me)]D[dNMeA]G[Bip(4'-COOH)][Ala(pyrimidin-5-yl)][Dap][dA][h3Pal(5-CN)])
SMILES: C[C@@H]1C(=O)NCC(=O)N[C@@H](Cc2ccc(-c3ccc(C(=O)O)cc3)cc2)C(=O)N[C@@H](Cc2cncnc2)C(=O)N[C@@H](CN)C(=O)N[C@H](C)C(=O)N[C@@H](CCc2cncc(C#N)c2)C(=O)N[C@@H](Cc2ccc(-c3ccc(C(=O)O)cc3)cc2)C(=O)N[C@@H](Cc2c[nH]c3ccccc23)C(=O)N[C@@H](Cc2ccc(C(=O)O)cc2)C(=O)NCC(=O)N2C[C@H](N)C[C@H]2C(=O)N[C@@H]([C@@H](C)c2cccc3ccccc23)C(=O)N[C@@H](CC(=O)O)C(=O)N1C
B7: SEQ ID NO: 26 (peptide)
peptide: cyclo([Bip(4'-COOH)]W[Phe(4-COOH)]G[Pro(trans-4-NH2)][1Nal(3S-Me)]D[dNMeA]G[Bip(4'-COOH)]KL[dS][hTyr])
SMILES: CC(C)C[C@@H]1NC(=O)[C@H](CCCCN)NC(=O)[C@H](Cc2ccc(-c3ccc(C(=O)O)cc3)cc2)NC(=O)CNC(=O)[C@@H](C)N(C)C(=O)[C@H](CC(=O)O)NC(=O)[C@H]([C@@H](C)c2cccc3ccccc23)NC(=O)[C@@H]2C[C@@H](N)CN2C(=O)CNC(=O)[C@H](Cc2ccc(C(=O)O)cc2)NC(=O)[C@H](Cc2c[nH]c3ccccc23)NC(=O)[C@H](Cc2ccc(-c3ccc(C(=O)O)cc3)cc2)NC(=O)[C@H](CCc2ccc(O)cc2)NC(=O)[C@@H](CO)NC1=O
B8: SEQ ID NO: 24 (peptide)
peptide: cyclo([Bip(4'-COOH)]W[Phe(4-COOH)]G[Pro(trans-4-NH2)][1Nal(3S-Me)]D[dNMeA]G[Bip(4'-COOH)][Ala(4-THP)][Dap][dA][hTyr])
SMILES: C[C@@H]1C(=O)NCC(=O)N[C@@H](Cc2ccc(-c3ccc(C(=O)O)cc3)cc2)C(=O)N[C@@H](CC2CCOCC2)C(=O)N[C@@H](CN)C(=O)N[C@H](C)C(=O)N[C@@H](CCc2ccc(O)cc2)C(=O)N[C@@H](Cc2ccc(-c3ccc(C(=O)O)cc3)cc2)C(=O)N[C@@H](Cc2c[nH]c3ccccc23)C(=O)N[C@@H](Cc2ccc(C(=O)O)cc2)C(=O)NCC(=O)N2C[C@H](N)C[C@H]2C(=O)N[C@@H]([C@@H](C)c2cccc3ccccc23)C(=O)N[C@@H](CC(=O)O)C(=O)N1C
B9: SEQ ID NO: 30 (peptide)
peptide: cyclo([Bip(4'-COOH)]W[Phe(4-COOH)]G[Pro(trans-4-NH2)][1Nal(3S-Me)]D[dNMeA]G[Bip(4'-COOH)]W[Dap][dA][h3Pal(5-CN)])
SMILES: C[C@@H]1C(=O)NCC(=O)N[C@@H](Cc2ccc(-c3ccc(C(=O)O)cc3)cc2)C(=O)N[C@@H](Cc2c[nH]c3ccccc23)C(=O)N[C@@H](CN)C(=O)N[C@H](C)C(=O)N[C@@H](CCc2cncc(C#N)c2)C(=O)N[C@@H](Cc2ccc(-c3ccc(C(=O)O)cc3)cc2)C(=O)N[C@@H](Cc2c[nH]c3ccccc23)C(=O)N[C@@H](Cc2ccc(C(=O)O)cc2)C(=O)NCC(=O)N2C[C@H](N)C[C@H]2C(=O)N[C@@H]([C@@H](C)c2cccc3ccccc23)C(=O)N[C@@H](CC(=O)O)C(=O)N1C
B10: SEQ ID NO: 23 (peptide)
peptide: cyclo([Bip(4'-COOH)]W[Phe(4-COOH)]G[Pro(trans-4-NH2)][1Nal(3S-Me)]D[dNMeA]G[Bip(4'-COOH)][Ala(4-THP)][Dap][dA][h3Pal(5-CN)])
SMILES: C[C@@H]1C(=O)NCC(=O)N[C@@H](Cc2ccc(-c3ccc(C(=O)O)cc3)cc2)C(=O)N[C@@H](CC2CCOCC2)C(=O)N[C@@H](CN)C(=O)N[C@H](C)C(=O)N[C@@H](CCc2cncc(C#N)c2)C(=O)N[C@@H](Cc2ccc(-c3ccc(C(=O)O)cc3)cc2)C(=O)N[C@@H](Cc2c[nH]c3ccccc23)C(=O)N[C@@H](Cc2ccc(C(=O)O)cc2)C(=O)NCC(=O)N2C[C@H](N)C[C@H]2C(=O)N[C@@H]([C@@H](C)c2cccc3ccccc23)C(=O)N[C@@H](CC(=O)O)C(=O)N1C
B11: SEQ ID NO: 3 (peptide)
peptide: cyclo([3AzaPhe4AcPip]W[Phe(4-COOH)]G[Pro(trans-4-NH2)][1Nal(3S-Me)]D[dNMeA]G[Bip(4'-COOH)]KL[dA][hTyr])
SMILES: CC(=O)N1CCN(c2ccc(C[C@@H]3NC(=O)[C@H](CCc4ccc(O)cc4)NC(=O)[C@@H](C)NC(=O)[C@H](CC(C)C)NC(=O)[C@H](CCCCN)NC(=O)[C@H](Cc4ccc(-c5ccc(C(=O)O)cc5)cc4)NC(=O)CNC(=O)[C@@H](C)N(C)C(=O)[C@H](CC(=O)O)NC(=O)[C@H]([C@@H](C)c4cccc5ccccc45)NC(=O)[C@@H]4C[C@@H](N)CN4C(=O)CNC(=O)[C@H](Cc4ccc(C(=O)O)cc4)NC(=O)[C@H](Cc4c[nH]c5ccccc45)NC3=O)cn2)CC1
B12: SEQ ID NO: 31 (peptide)
peptide: cyclo([Bip(4'-COOH)]W[Phe(4-COOH)]G[Pro(trans-4-NH2)][1Nal(3S-Me)]D[dNMeA]G[Bip(4'-COOH)]W[Dap][dA][hTyr])
SMILES: C[C@@H]1C(=O)NCC(=O)N[C@@H](Cc2ccc(-c3ccc(C(=O)O)cc3)cc2)C(=O)N[C@@H](Cc2c[nH]c3ccccc23)C(=O)N[C@@H](CN)C(=O)N[C@H](C)C(=O)N[C@@H](CCc2ccc(O)cc2)C(=O)N[C@@H](Cc2ccc(-c3ccc(C(=O)O)cc3)cc2)C(=O)N[C@@H](Cc2c[nH]c3ccccc23)C(=O)N[C@@H](Cc2ccc(C(=O)O)cc2)C(=O)NCC(=O)N2C[C@H](N)C[C@H]2C(=O)N[C@@H]([C@@H](C)c2cccc3ccccc23)C(=O)N[C@@H](CC(=O)O)C(=O)N1C

target: Recombinant human IL-1β (BioLegend 579404) (human, UniProt P01584 117-269); experiment: cell-based or functional assay

**Q.** With B1 as the binder, how does the “MRC5 IC50” value read?
**A.** 0.0205 nM

**Q.** How did the “MRC5 IC50” value turn out when B2 was run?
**A.** 0.0393 nM

**Q.** With B3 as the binder, how does the “MRC5 IC50” value read?
**A.** 0.0234 nM

**Q.** With B4 as the binder, how does the “MRC5 IC50” value read?
**A.** 0.0542 nM

**Q.** How did the “MRC5 IC50” value turn out when B5 was run?
**A.** 0.0325 nM

**Q.** Which “MRC5 IC50” value does the source give for B6 here?
**A.** 0.017 nM

**Q.** B7 was tested. Which “MRC5 IC50” value did it give?
**A.** 0.0688 nM

**Q.** How did the “MRC5 IC50” value turn out when B8 was run?
**A.** 0.0291 nM

**Q.** Which “MRC5 IC50” value does the source give for B9 here?
**A.** 0.0185 nM

**Q.** How did the “MRC5 IC50” value turn out when B10 was run?
**A.** 0.0112 nM

**Q.** B11 was tested. Which “MRC5 IC50” value did it give?
**A.** 0.0599 nM

**Q.** For B12, which “MRC5 IC50” value is on record?
**A.** 0.0208 nM
